Experimental data: the nanobody polyreactivity screen of Harvey et al. (2022)

test: yeast display, Sf9 membrane polyspecificity reagent, FACS + sequencing; frameworks hold sequencing errors
Outline: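 A synthetic nanobody library was expressed on Saccharomyces cerevisiae BJ5465 by galactose induction for 36–48 hours. The library was stained for 1 hour at 4 °C with 10% biotinylated, detergent-solubilized Sf9 membrane reagent and enriched with streptavidin microbeads before FACS. Low and high (top ~1%) gates were set on anti-HA fluorescence for expression and streptavidin fluorescence for reagent binding, and each polyreactivity label reflects the gate of origin.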

| Sequence | polyreactivity (PSR sort gate) |
| --- | --- |
| HVQLVESGGGLVQAGGSLRLSCAASGLIFYNYAMGWYRQAPGKERELVAAITGSGGSTYYADSVKGRFTISRDNAKNTVYLQMNSLKPEDTAVYYCAADGIYTFEYWGQGTLVTVSS | low polyreactivity |
| HVQLVESGGGLVQAGGSLRLSCAASGLTFDVNAMGWYRQAARKERELVAAITADDGSTYYADSVKGRFTISRDNAKNTVYLQMNSLKPEDTAVYYCAADYVNLPYIMDYWGQGTQVTVSS | low polyreactivity |
| HVQLVESGGGLVQAGGSLRLSCAASGLTFSRYTMGWYRQAPGKERELVAAISRSGASTYYADSVKGRFTISRDNAKNTVYLQMNSLKPEDTAVYYCAKTSTSYGSLRKVTPYPLDYWGQGTQVTVSS | high polyreactivity |
| HVQLVESGGGLVQAGGSLRLSCAASGRISLFNAMGWYRQAPGKERELVAAITYTGGSTYYADSVKGRFTISRDNAKNTVYLQMNSLKPEDTAVYYCAAEYYYVYTYDYWGQGTQVTVSS | high polyreactivity |
| HVQLVESGGGLVQAGGSLRLSCAASGRIYWANAKGRYRQAPGKERELVAAISYSGGTYYADSVKGGFTISRDNAKNTVYLQMNSLKPADTAVYFCAAVDRRDGTKRWGFDYWGQGTQVTVSS | high polyreactivity |
| HVQLVESGGGLVQAGGSLRLSCAASGRTFNVNAMGWYRQAPGKERELVAAIDFSDGRTYYADSVKGRFTISRDNAKNTVYLQMNSLKPEDTAVYYCARSFRVGNTWYDYWGQGTQVTVSS | high polyreactivity |
| HVQLVESGGGLVQAGGSLRLSCAASGRTFVNNAMGWYRQAPGKERELVAAISQSGSRTYYADSVKGRFTISRDNAKNTVYLQMNSLKPEDTAVYYCAARGARYSTSDYWGQGTQVTVSS | high polyreactivity |
| HVQLVESGGGLVQAGGSLRLSCAASGSIFFRNTMGWTRQAPGKEREKVAAITRGGGRTYYADSVKGRFTISRDNAKNTVYLQMNSLQPEDTAVYYCNTADYHGRWAFAWYGDYWGQGTQVTVSS | high polyreactivity |
| HVQLVESGGGLVQAGGSLRLSCAASGSIFWRYAMGWYRQAPGKERELVAAITWSGGTSYADSVKGRFTISRDNAKNTVYLQMNSLKPEDTAVYYCNADGLSYYLYDYWGQGTQVTVSS | low polyreactivity |
| HVQLVESGGGLVQAGGSLRLSCAASGSSLDYYVMGWYRQAPGNERELVAAIRGGGSTYYADSVKGRFTISRDNAKNTVYLQMKSLKPEDTEVYYCAKDSQTARDFDYWGQGTQVTVSS | low polyreactivity |
| HVQLVESGGGLVQAGGSLRLSCAASGSSSAKYAMGWYRQAPGKERELVAAITSRADSTYYADSVKGRFTISRDNAKNTVYLQMNSLKPEDTAVYYCNVRITVYRSDVWYFIYDYWGQGTQVTVSS | low polyreactivity |
| HVQLVESGGGLVQAGGSLRLSCAASGSTFGGNAMGWYRQAPGKERELVAAISKSGGRTFYADSVKGRFTISRDNAKNTVYLQMISLKPEDTAVYYCAAQYRGYGYWGQGTQVTVSS | high polyreactivity |
| HVQLVESGGGLVQAGGSLRLSCAASGSTFGSYALGWYRQAPGKERELVADISSRGASTYNADSVKGRFTISRDNAKNTVYLQMNSLKPEDTAVSYCATDKLYGRTVRMDYWGQGTQVTVSS | low polyreactivity |
| HVQLVESGGGLVQAGGSLRLSCAASGSTFGYYTMGWYREAPGKERELVAAISWSGGSTYYADSVKGRFTISRDNAKNTVYLQMNRLKPEDTAVYYCAALGYTYKYYSYYWGQGTQVTVSS | high polyreactivity |
| HVQLVESGGGLVQAGGSLRLSCAASGSTFIGYDMGWYTQAPGKERELVAAISYYDGTYYADSVNGSFTISRDNAKNTVYLQMNTLKPEDTAVYFCGVYRYDYWGQGTQVTVSS | low polyreactivity |
| HVQLVESGGGLVQAGGSLRLSCAASGSTFSAYAMGWDRQAPGKERELVASISYSGSSTYYADSVKGRFTISRDNAKNTVYLHMNSLNPEDTAVSSCAADDRYWGPGGPLSRWSRGMYYWGQGTQVTVSS | high polyreactivity |
| HVQLVESGGGLVQAGGSLRLSCAASGSTFSSYAMGWYRQAPGQERELVAAITGGGANTYYADSVKGRFTISRDNAKNTVYLQMNSLKPEDTAVYYCNARSGYLHSKWTGYYWGQGTQVTVSS | low polyreactivity |
